Substitutions are numbered along the chain they refer to. Names may count otherwise.

Assay [1] addresses T1, cynomolgus SIRP-α D1 domain (cyno2) (cynomolgus monkey, UniProt Q5TFQ8 30-148 (human entry), limits assumed).
T1 chain: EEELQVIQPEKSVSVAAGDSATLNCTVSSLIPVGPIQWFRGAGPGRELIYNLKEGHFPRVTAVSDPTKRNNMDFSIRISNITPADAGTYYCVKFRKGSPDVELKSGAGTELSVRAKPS
Description: SPR, Langmuir fit. In a few lines: (§1)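 Dissociation rate constants (koff) were measured on a ProteOn XPR36 instrument by Langmuir model fitting. Antibody clones in scFv-Fc format were captured from pre-filtered culture media onto a GLC chip with about 4000 RU of amine-coupled anti-human IgG Fc. SIRP analytes ran in PBS pH 7.4 with 0.01% Tween-20 at 25° C, and the model used was 1:1, applied to data double-referenced against interspot and buffer-blank responses.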

Assay [2] concerns the target T2, human SIRPβ isoform 1 (human, UniProt O00241 30-148).
T2 construct: also called SIRPb; sirpb1
Description: SPR, Langmuir fit. In a few lines: as §1
In general terms: In SPR one partner is held on a chip, and binding of the other changes the refractive index at the surface.

Assay [3] has as its target T3, human SIRP-α v2 D1 domain (human).
T3 construct: also called human v2
Description: SPR, Langmuir fit. In a few lines: as §1

Assay [4] has as its target T4, human SIRP-α v1 D1 domain (human, UniProt P78324 31-149).
T4 construct: also called human v1
As to the kind of experiment: SPR, Langmuir fit. In a few lines: as §1

In assay [5] the target is T5, human SIRPγ isoform 1 (human, UniProt Q9P1W8 29-147).
T5 construct: also called SIRPg; sirpg
Description: SPR, Langmuir fit. In a few lines:
as §1

The target in assay [6] is T6, high affinity SIRP-α D1 variant CV1-3.
T6 chain: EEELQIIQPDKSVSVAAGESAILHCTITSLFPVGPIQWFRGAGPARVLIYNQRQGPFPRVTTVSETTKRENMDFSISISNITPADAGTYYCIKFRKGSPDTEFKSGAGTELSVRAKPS
As to the kind of experiment: SPR, Langmuir fit. In a few lines: as §1

Assay [7] has as its target T7, mouse 129 SIRP-α D1 domain (mouse (129 strain), UniProt P97797 32-150).
T7 construct: also called m129
T7 chain: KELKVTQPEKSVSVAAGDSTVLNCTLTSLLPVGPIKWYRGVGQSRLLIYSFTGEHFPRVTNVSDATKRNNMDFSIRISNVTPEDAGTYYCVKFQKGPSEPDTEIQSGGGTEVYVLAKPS
Description: SPR. In a few lines:
as §1

Assay [8] deals with T8, C57BL/6 mouse SIRP-α D1 domain (mouse (C57BL/6 strain), UniProt P97797 32-148).
T8 sequence: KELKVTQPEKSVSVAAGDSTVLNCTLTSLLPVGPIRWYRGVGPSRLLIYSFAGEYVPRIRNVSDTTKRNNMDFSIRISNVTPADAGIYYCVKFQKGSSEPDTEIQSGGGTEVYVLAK
Description: SPR. In a few lines:
as §1

The next assay deals with T9, human SIRP-α v1 (human, UniProt P78324 31-149).
T9 construct: also called Human v1; Human V1
As to the kind of experiment: SPR, antibody on GLC chip. In a few lines: (§2)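 On a ProteOn XPR36 biosensor, Protein A-purified antibodies were amine-coupled to a GLC chip at about ~1000 RU after dilution to 80 nM in 10 mM sodium acetate pH 4.5. SIRP analytes at 100, 33, 11, 3.7, 1.2 and 0 nM were then injected one-shot in PBS pH 7.4 containing 0.01% Tween-20 at 25° C, with 90 s of association at 100 μL/min and 1200 s of dissociation. The dissociation constant (KD) was calculated as kd/ka from a global Langmuir fit of double-referenced data.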

Assay [9] addresses T10, human SIRPβ isoform 1 (human, UniProt O00241 30-148).
T10 construct: also called Beta; Human SIRPb
Description: SPR, antibody on GLC chip. In a few lines: as §2

The target in the next assay is T11, BALBc mouse SIRP-α (mouse (BALB/c strain)).
T11 chain: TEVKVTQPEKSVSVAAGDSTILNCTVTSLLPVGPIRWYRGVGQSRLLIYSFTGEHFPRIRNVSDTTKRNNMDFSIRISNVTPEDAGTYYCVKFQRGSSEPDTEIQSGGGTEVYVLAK
Description: SPR, antibody on GLC chip. In a few lines: as §2

In a further assay the target is T12, human SIRP-α v2 (human).
T12 construct: also called Human v2; Human V2
As to the kind of experiment: SPR, antibody on GLC chip. In a few lines:
as §2

Assay [10] addresses T13, human SIRPγ isoform 1 (human, UniProt Q9P1W8 29-147).
T13 construct: also called Gamma; Human SIRPg
As to the kind of experiment: SPR, antibody on GLC chip. In a few lines: as §2

In the next assay the target is T14, NOD mouse SIRP-α (mouse (NOD strain)).
T14 chain: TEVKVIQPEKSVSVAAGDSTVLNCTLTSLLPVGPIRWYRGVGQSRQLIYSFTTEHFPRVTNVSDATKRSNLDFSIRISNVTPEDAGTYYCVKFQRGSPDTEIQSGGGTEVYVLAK
Description: SPR, antibody on GLC chip. In a few lines:
as §2

Another assay deals with T15, BL6 mouse SIRP-α (mouse (C57BL/6 strain), UniProt P97797 32-148).
T15 construct: also called C57BL/6
T15 sequence: T8 sequence
As to the kind of experiment: SPR, antibody on GLC chip. In a few lines:
as §2

Assay [11] has as its target T16, human SIRP-α v2 D1 domain (human).
T16 construct: also called human v2; human α v2
Description: SPR, antibody immobilised on GLC chip. The method, then:
(§3) All experiments were performed at 25° C. using a SPR-based ProteOn XPR36 biosensor (BioRad, Inc, Hercules, Calif.) equipped with GLC or NLC sensor chips. […] Purification was carried out by standard Protein A affinity column chromatography and eluted antibodies were stored in PBS buffer.
(§4) For the method using GLC chip, the analytes were injected and flowed over anti-SIRPα antibodies immobilized (˜1000 RUs) on GLC chips using Proteon™ Amine Coupling Kit. For the immobilization step, GLC chip was activated with EDAC/Sulpho-NHS 1:1 (Biorad) diluted 1/100 for 300 s at 25 μL/min. Anti-SIRPα antibodies were diluted to 80 nM concentration in 10 mM sodium acetate buffer pH 4.5 and immobilized to the chip at 30 μL/min for 50 s. Chip was inactivated with ethanolamine for 300 s at 25 μL/min. The analytes (e.g., SIRP-α from different species, SIRP-β, SIRP-γ) were injected in a “one-shot” kinetic mode at nominal concentrations of 100, 33, 11, 3.7, 1.2 and 0 nM. Association times were monitored for 90 s at 100 μL/min, and dissociation times were monitored for 1200 s. The surfaces were regenerated with a 2:1 v/v blend of Pierce IgG elution buffer/4M NaCl.

Assay [12] addresses T17, human SIRP-α v1 D1 domain (human, UniProt P78324 31-149).
T17 construct: also called human v1; human α v1
Description: SPR, antibody immobilised on GLC chip. The method, then: as §3, §4

Assay [13] has as its target T18, cynomolgus SIRP-α D1 domain (SEQ ID NO:11) (cynomolgus, UniProt Q5TFQ8 30-148 (human entry), limits assumed).
T18 construct: also called cyno1
T18 chain: T1 chain with D19E, V27A, S28T, A42V, N51H, L52Q, A62P
As to the kind of experiment: SPR, antibody immobilised on GLC chip. Here is the method:
as §3, §4

T12 sequence (chain, as listed by the source limits assumed): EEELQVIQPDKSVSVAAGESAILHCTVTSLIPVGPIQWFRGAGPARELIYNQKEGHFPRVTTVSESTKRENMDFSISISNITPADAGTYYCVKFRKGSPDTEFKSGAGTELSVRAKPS
T9 sequence (P78324 31-149 limits assumed): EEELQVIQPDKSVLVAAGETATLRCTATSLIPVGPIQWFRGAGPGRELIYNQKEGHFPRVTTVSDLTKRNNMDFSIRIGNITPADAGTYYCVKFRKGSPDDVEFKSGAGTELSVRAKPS

B1: S163 (scFv, V domains shown)
VH: DVQLVESGGGLVRPGESLRLSCAASGFTFTNYAVTWVRQAPGEGLEWVSLISVTGTTYYADSVKGRFTISRDNSKSTLYLQMNGLRAEDTAVYYCAKVTWKNVFDYWGLGTLVTVSS
VL: EIVLTQSPGTLSVSPGERATFSCRASQTVGSKLAWYQQKPGQAPRLLIYDANTRATGIPARFSGSGSGTEFTLTISSLQSEDFAVYYCQQHTDWPPYTFGGGTKVEIK
For B1, the koff (as a rule, a measure of how fast the partners let go of each other) in [1] was determined as 0.000242 s⁻¹; with human SIRPβ isoform 1 [2], 0.0017 s⁻¹; in assay [3], 0.00664 s⁻¹; in assay [4] it was 0.000535 s⁻¹; with human SIRPγ isoform 1 [5], 0.00315 s⁻¹; in assay [6], 0.00174 s⁻¹. Also, the binding result in assay [7] and in assay [8] was “no binding (tested: Koff > 5 × 10^3 (legend))” in each case.

B2: S164 (scFv, V domains shown)
VH: B1 VH
VL: B1 VL with G66R
As for B2, the koff in assay [1] worked out at 0.000408 s⁻¹; with human SIRPβ isoform 1 [2], 0.00167 s⁻¹; in assay [3], 0.00989 s⁻¹; in [4], 0.000595 s⁻¹; in the assay with human SIRPγ isoform 1 [5], 0.00426 s⁻¹; in [6] it was 0.00134 s⁻¹. The binding result in assay [7] and in [8] was “no binding (tested: Koff > 5 × 10^3 (legend))” in each case.

B3: S162 (scFv, V domains shown)
VH: B1 VH with G84S
VL: B1 VL
For the molecule B3, the off-rate constant (koff) is 0.000318 s⁻¹ in assay [1] and 0.00152 s⁻¹ in [6]. The binding result in [7] and in assay [8] was “no binding (tested: Koff > 5 × 10^3 (legend))” in each case.

B4: antibody 136 variant, light chain wt / heavy chain Mut (antibody, V domains shown)
VH: EVQLVESGGGVVQPGRSLRLSCAASGFTFSSYDVNWVRQAPGKGLEWVSLISGSGEIIYYADSVKGRFTISRDNSKNTLYLQMNSLRAEDTAVYYCAKENNRYRFFDDWGQGTLVTVSS
VL: ETVLTQSPGTLTLSPGERATLTCRASQSVYTYLAWYQEKPGQAPRLLIYGASSRATGIPDRFSGSGSGTEFTLTISSLQSEDFAVYYCQQYYDRPPLTFGGGTKVEIK
On to B4, for which the Kd – broadly, the free concentration of one partner at which half of the binding sites on the other are occupied at equilibrium, for simple one-to-one binding – in the assay with human SIRP-α v1 was 0.558 nM; in the assay with human SIRPβ isoform 1 [9], 3.54 nM; with BALBc mouse SIRP-α, 0.416 nM; with human SIRP-α v2 it was 1.74 nM; with human SIRPγ isoform 1 [10], 16.5 nM; with NOD mouse SIRP-α, 0.678 nM. In addition, the Kd with BL6 mouse SIRP-α was found to be 23.1 nM.

B5: antibody 136 variant, light chain Mut_I2T / heavy chain Mut (antibody, V domains shown)
VH: B4 VH
VL: B4 VL with T12S, T22S, E38Q
Regarding B5, the equilibrium dissociation constant (Kd) with human SIRP-α v1 was found to be 0.717 nM; with human SIRPβ isoform 1 [9] it was 3.16 nM; with BALBc mouse SIRP-α, 0.422 nM; with human SIRP-α v2, 1.86 nM; with human SIRPγ isoform 1 [10], 40 nM; with NOD mouse SIRP-α it was 0.68 nM. In the assay with BL6 mouse SIRP-α, the Kd was 15.3 nM.

B6: antibody 119 variant mut/wt (VL mut all / VH wt) (antibody, human IgG1, V domains shown)
VH: DVQLLESGGGVVQPGGSLRLSCAASGFSFSNFAMTWVRQAPGEGLEWVSTIGSGDTYYADSVKGRFTISRDNSKNTLYLQMNSLRAEDTAVYYCAKDSTVSWSGDFFDYWGLGTLVTVSS
VL: EIVLTQSPATLSVSPGERATLSCRASQNVKNDLAWYQQKPGQAPRLLIYAARIRETGIPARFSGSGSGTEFTLTISSLQSEDFAVYYCQQYYDWPPFTFGGGTKVEIK
notes: Human IgG1 with L234A/L235A/G237A/N297A; Labels are in the order VL/VH
With B6, the Kd in assay [11] was found to be 0.0864 nM; in assay [12], 0.214 nM; in assay [13], 0.138 nM.

B7: antibody 135 variant wt/mut V34M (antibody, human IgG1, V domains shown)
VH: B6 VH with D1E, L5V, N31I, F32Y, T35S, E43K, S53A, G54D, S101G, L112Q
VL: EIVLTQSPATLSVSPGERVTFSCRASQNVRSDIAWYQQKPGQAPRLLIYAASSRDTGIPDRFSGSGSGTDFTLTISSLQSEDFGVYYCQQYYDWPPFTFGGGTKVEIK
notes: as for B6
In the case of B7, the values for the Kd in assay [11], in [12] and in assay [13] were 0.0161 nM, 0.15 nM and 0.0794 nM, respectively.

B8: AB119 Wt/wt with hIgG4 (antibody, V domains shown)
VH: B6 VH
VL: B6 VL with L21F, K39R, A60E, S76T
notes: Human IgG4 Fc region with S228P (EU numbering); only variable domains tied to the clone
On to B8, for which the Kd in assay [11] was 0.0598 nM; in assay [12], 0.174 nM; in assay [13], 0.116 nM.

B9: antibody 119 variant Mut/mut_V34M (antibody, human IgG1, V domains shown)
VH: B6 VH with D1E, E43K, L112Q
VL: B6 VL
notes: as for B6
Regarding B9, the figures for the Kd in assay [11], in [12] and in [13] were 0.0688 nM, 0.215 nM and 0.118 nM, respectively.

B10: antibody 119 variant wt/mut (VL wt / VH mut) (antibody, human IgG1, V domains shown)
VH: B6 VH with D1E, M34V, E43K, L112Q
VL: B6 VL with L21F, K39R, A60E, S76T
notes: as for B6
On to B10, for which the dissociation constant Kd in assay [11] turned out to be 0.0694 nM; in assay [12] it was 0.254 nM; in [13], 0.155 nM.

The values above are taken from patent publication US20210363269A1 (ALX ONCOLOGY, published 2021).
